{
  "source": "patent US20250340857A1",
  "about": "(SEISMIC THERAPEUTIC, published 2025)",
  "binders": {"B1": {"name": "FP184 (Fc fusion)", "chain 1": "DKTHTCPPCPAPEAAGAPSVFLFPPKPKDTLMISRTPEVTCVVVDVSHEDPEVKFNWYVDGVEVHNAKTKPREEQQNSTYRVVSVLTVLHQDWLNGKEYKCKVSNKALKAPIEKTISKAKGQPREPQVYTLPPSRDELTKNQVSLWCLVKGFYPSDIAVEWESNGQPENNYKTTPPVLDSDGSFFLYSKLTVDKSRWQQGNVFSCSVMHEALHNHYTQKSLSLSPGEAAAKEAAAKEAAAKTALGRRKAEDRIKETLWADGVKIDEKDFEHIKSSHEDYFAVEYGKGSGYYDVNKKMDSEDSALCVGAVVTNMFHWWVDQNRENIEKFKKQDPENNGVMKFEGVKEATVDELNEFYRDNRDNYADQSRFFDLIKKHFGNKALNPEELFELYFNGFYYGSSHRYIEDNEPAQNNLFSKVLENNKLLNPERSYGIDGFSNNVINALKSHKVLGLVYTTPLRYRHIISMWGADIDQDGKVKAIYVTDSDDREITFNDNSKRRIGMIRYDVLVDDNGNIRFTGKGATHKEEGAIYAGLYSLSRGDEVWEDYFKKYPEVQENL", "chain 2": "DKTHTCPPCPAPEAAGAPSVFLFPPKPKDTLMISRTPEVTCVVVDVSHEDPEVKFNWYVDGVEVHNAKTKPREEQQNSTYRVVSVLTVLHQDWLNGKEYKCKVSNKALKAPIEKTISKAKGQPREPQVYTLPPSRDELTKNQVSLSCAVKGFYPSDIAVEWESNGQPENNYKTTPPVLDSDGSFFLVSKLTVDKSRWQQGNVFSCSVMHEALHNHYTQKSLSLSPG"}, "B2": {"name": "FP191 (Fc fusion)", "chain 1": "DKTHTCPPCPAPEAAGAPSVFLFPPKPKDTLMISRTPEVTCVVVDVSHEDPEVKFNWYVDGVEVHNAKTKPREEQQNSTYRVVSVLTVLHQDWLNGKEYKCKVSNKALKAPIEKTISKAKGQPREPQVYTLPPSRDELTKNQVSLWCLVKGFYPSDIAVEWESNGQPENNYKTTPPVLDSDGSFFLYSKLTVDKSRWQQGNVFSCSVMHEALHNHYTQKSLSLSPGAPAPAPAPAPAPAPTALGRRKAEDRIKETLWADGVKIDEKDFEHIKSSHEDYFAVEYGKGSGYYDVNKKMDSEDSALCVGAVVTNMFHWWVDQNRENIEKFKKQDPENNGVMKFEGVKEATVDELNEFYRDNRDNYADQSRFFDLIKKHFGNKALNPEELFELYFNGFYYGSSHRYIEDNEPAQNNLFSKVLENNKLLNPERSYGIDGFSNNVINALKSHKVLGLVYTTPLRYRHIISMWGADIDQDGKVKAIYVTDSDDREITFNDNSKRRIGMIRYDVLVDDNGNIRFTGKGATHKEEGAIYAGLYSLSRGDEVWEDYFKKYPEVQENL", "chain 2": "B1 chain 2"}, "B3": {"name": "FP16 (Fc fusion)", "chain": "DKTHTCPPCPAPEAAGAPSVFLFPPKPKDTLMISRTPEVTCVVVDVSHEDPEVKFNWYVDGVEVHNAKTKPREEQQNSTYRVVSVLTVLHQDWLNGKEYKCKVSNKALKAPIEKTISKAKGQPREPQVYTLPPSRDELTKNQVSLTCLVKGFYPSDIAVEWESNGQPENNYKTTPPVLDSDGSFFLYSKLTVDKSRWQQGNVFSCSVMHEALHNHYTQKSLSLSPGGGGSGGGGSGGGGSTALGRRKAEDRIKETLWADGVKIDEKDFEHIKSSHEDYFAVEYGKGSGYYDVNKKMDSEDTALCVGAVVTNMFHWWVDQNRENIEKFKKQDPENNGVMKFNGVKEATVDELNHFYKEYQSNKYADQSRFFDLIKKHFGNKALNPEELFELYFNGFYYGSSHRYIEDNKPAQNNLFSKVLENNKLLNPERSYGIDGFSNNVINALKSHKVLGLVHTTPLRYRHIISMWGADIDQDGKVKAIYVTDSDDREITFNDNSKRRIGMIRYDVLVDDNGNIRFTGKGATHKEEGAIYAGLYSLSRGDEVWEDYFKKYPEVQENL"}, "B4": {"name": "FP13 (Fc fusion)", "chain": "DKTHTCPPCPAPEAAGAPSVFLFPPKPKDTLMISRTPEVTCVVVDVSHEDPEVKFNWYVDGVEVHNAKTKPREEQQNSTYRVVSVLTVLHQDWLNGKEYKCKVSNKALKAPIEKTISKAKGQPREPQVYTLPPSRDELTKNQVSLTCLVKGFYPSDIAVEWESNGQPENNYKTTPPVLDSDGSFFLYSKLTVDKSRWQQGNVFSCSVMHEALHNHYTQKSLSLSPGGGGSGGGGSGGGGSTALGRRKAEDRIKETLWADGVKIDEKDFEHIKSSHEDYFAVEYGKGSGYYDVNKKMDSEDSALCVGAVVTNMFHWWVDQNRENIEKFKKQDPENNGVMKFEGVKEATVDELNHFYRDNRDNYADQSRFFDLIKKHFGNKALNPEELFELYFNGFYYGSSHRYIEDNEPAQNNLFSKVLENNKLLNPERSYGIDGFSNNVINALKSHKVLGLVHTTPLRYRHIISMWGADIDQDGKVKAIYVTDSDDREITFNDNSKRRIGMIRYDVLVDDNGNIRFTGKGATHKEEGAIYAGLYSLSRGDEVWEDYFKKYPEVQENL"}, "B5": {"name": "FP19 (Fc fusion)", "chain": "B4 chain with H453Y"}},
  "note": "Changes are numbered by the printed parent chain.",
  "data": [
    {"target": "Human IgE antibody (human)", "experiment": "cell-based or functional assay", "units": {"EC50 MSD IgE": "nM", "EC50 CE-SDS IgE": "nM"}, "values": [
      {"binder": "B1", "EC50 MSD IgE": 0.475},
      {"binder": "B2", "EC50 CE-SDS IgE": 1.51, "EC50 MSD IgE": 0.555},
      {"binder": "B3", "EC50 CE-SDS IgE": 47},
      {"binder": "B4", "EC50 CE-SDS IgE": 31.9},
      {"binder": "B5", "EC50 CE-SDS IgE": 21.8, "EC50 MSD IgE": 1.2}
    ]},
    {"target": "IgG1", "experiment": "cell-based or functional assay", "units": {"EC50 CE-SDS IgG1": "nM"}, "values": [
      {"binder": "B3", "EC50 CE-SDS IgG1": 8720},
      {"binder": "B4", "EC50 CE-SDS IgG1": 21300},
      {"binder": "B5", "EC50 CE-SDS IgG1": 7240}
    ]}
  ]
}
